Source: patent publication US8685890 (Bicycle, dated 2014)
Where “and” joins values, the source holds several entries; their conditions need not be identical. Equal values may be shown once. Starred links: 1 amine or outer side, 2 acyl side, 3 side chain; linkers in the order of their positions; H or OH if unused. Positions of bridges follow the written chain, without caps; N, C: chain ends. No end group written: not given here. TBMB = c1c(C[*:1])cc(C[*:3])cc1C[*:2]

What was measured:
[1] = target: T1, MDM2 (res 2-125) (UniProt Q00987 2-125); assay: as described in Example 1 (method not retold)
T1 construct: range 2-125

[2] = target: T1, MDM2 (res 2-125); assay: fluorescence anisotropy (Example 1, retold as a range); upper end of range retold from Example 1
[3] = target: T1, MDM2 (res 2-125); assay: fluorescence anisotropy titration, λex=280 nm; λex=280 nm
[4] = target: T1, MDM2 (res 2-125); assay: fluorescence anisotropy titration, MDM2 (res 2-125) titrated into the peptide, quadratic 1:1 fit with linear drift term; unit from the axis uM Mdm2
[5] = target: T1, MDM2 (res 2-125); assay: fluorescence anisotropy (Example 1, retold as a range); lower end of range retold from Example 1
[6] = target: T1, MDM2 (res 2-125); assay: fluorescence anisotropy titration, λex=295 nm
[7] = target: T1, MDM2 (res 2-125); assay: fluorescence anisotropy titration, intrinsic Trp fluorescence, PBS 5 mM DTT, 23 C
[8] = target: T1, MDM2 (res 2-125); assay: fluorescence anisotropy titration, MDM2 (res 2-125) titrated into the peptide, quadratic 1:1 fit with linear drift term; unit from the axis MDM2, uM
[9] = target: kallikrein (UniProt P03952 20-638, limits assumed); assay: cell-based or functional assay
[10] = target: T2, Mdm2 (construct limits not stated) (UniProt Q00987 2-125, limits assumed); assay: fluorescence anisotropy (FIG. 3); PK15L1-PEP48L1 bicycle (FIG. 3)
[11] = target: T2, Mdm2 (construct limits not stated at …); assay: method not given; affinity-matured Pep48T, estimated
[12] = target: T3, bovine serum albumin (bovine, UniProt P02769 25-607); assay: fluorescence anisotropy titration of BSA into peptide
T3 construct: also called BSA

[13] = target: T3, bovine serum albumin; assay: fluorescence anisotropy, comparison of Kd
[14] = target: T3, bovine serum albumin; assay: fluorescence anisotropy titration of BSA into 0.4 µM peptide
[15] = target: T3, bovine serum albumin; assay: fluorescence anisotropy titration of BSA into 200 nM peptide
[16] = target: T3, bovine serum albumin; assay: fluorescence anisotropy titration of BSA into 500 nM peptide
[17] = target: T2, Mdm2 (construct limits not stated at …); assay: fluorescence anisotropy titration of 18.8 µM Mdm2 into 500 nM peptide; data could not be fitted

kallikrein, sequence (P03952 20-638 limits assumed): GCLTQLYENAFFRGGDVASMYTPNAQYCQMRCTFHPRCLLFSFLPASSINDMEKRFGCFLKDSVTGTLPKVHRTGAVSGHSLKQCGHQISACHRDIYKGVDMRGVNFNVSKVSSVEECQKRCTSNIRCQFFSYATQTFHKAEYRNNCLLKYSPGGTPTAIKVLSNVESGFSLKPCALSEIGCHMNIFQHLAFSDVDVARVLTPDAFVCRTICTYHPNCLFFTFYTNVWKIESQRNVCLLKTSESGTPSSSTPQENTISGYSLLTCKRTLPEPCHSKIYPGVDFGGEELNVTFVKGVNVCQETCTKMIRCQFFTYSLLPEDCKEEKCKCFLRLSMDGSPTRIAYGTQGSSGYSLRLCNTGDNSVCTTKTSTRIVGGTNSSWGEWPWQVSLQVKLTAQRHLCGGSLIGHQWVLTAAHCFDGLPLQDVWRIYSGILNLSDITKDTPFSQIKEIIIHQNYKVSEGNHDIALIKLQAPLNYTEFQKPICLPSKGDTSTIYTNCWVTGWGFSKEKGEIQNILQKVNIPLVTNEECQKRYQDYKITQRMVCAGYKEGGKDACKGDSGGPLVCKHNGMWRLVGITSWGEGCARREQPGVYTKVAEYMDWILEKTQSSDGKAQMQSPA
T2 sequence (Q00987 2-125 limits assumed): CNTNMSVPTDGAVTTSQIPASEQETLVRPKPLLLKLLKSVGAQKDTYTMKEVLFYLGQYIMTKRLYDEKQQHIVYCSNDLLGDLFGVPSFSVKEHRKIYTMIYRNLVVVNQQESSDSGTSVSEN
T1 sequence (Q00987 2-125 limits assumed): as above
T3 sequence (P02769 25-607 limits assumed): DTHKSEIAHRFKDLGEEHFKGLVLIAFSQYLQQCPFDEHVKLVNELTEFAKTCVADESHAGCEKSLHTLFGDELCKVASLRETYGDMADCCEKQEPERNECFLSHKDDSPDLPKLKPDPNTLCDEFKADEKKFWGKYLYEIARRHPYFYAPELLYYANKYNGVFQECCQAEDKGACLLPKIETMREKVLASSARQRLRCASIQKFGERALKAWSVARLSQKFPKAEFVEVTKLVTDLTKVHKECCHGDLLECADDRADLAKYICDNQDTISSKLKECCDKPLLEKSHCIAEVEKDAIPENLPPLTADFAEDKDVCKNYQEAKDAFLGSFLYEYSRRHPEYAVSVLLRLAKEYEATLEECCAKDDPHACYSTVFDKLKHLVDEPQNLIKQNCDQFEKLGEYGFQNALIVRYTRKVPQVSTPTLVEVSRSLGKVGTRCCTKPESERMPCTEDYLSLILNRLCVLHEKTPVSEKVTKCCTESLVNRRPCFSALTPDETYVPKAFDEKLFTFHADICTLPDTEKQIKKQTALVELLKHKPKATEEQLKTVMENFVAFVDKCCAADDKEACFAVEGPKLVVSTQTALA

B1: PEP48 bicyclic peptide (synthetic peptide of phage clone 48 conjugated to TBMB) (peptide)
peptide: H-SCVRFGWTCDNSWHGCKG-OH
modifications: linker 2-9-16 via TBMB
notes: measured in PBS with 5 mM DTT; also called peptide 48; PEP48L1-PEP48L2 bicyclic peptide
Question: B1 was tested. Which Kd [1] did it give?
Answer: ~0.66 µM

Question: What about the Kd [2] of the same binder?
Answer: ≤ 0.8 µM

Question: What about the Kd [3] of the same binder?
Answer: 0.76 µM

Question: And the Kd [4]?
Answer: 0.76 µM and 0.568 µM

Question: And the Kd [5]?
Answer: ≥ 0.5 µM

Question: And the Kd [6]?
Answer: 0.567 µM

Question: And the Kd [7]?
Answer: 0.25 to 0.75 µM

B2: PK15L1-PEP48L1 bicyclic (peptide)
peptide: ACSDRFRNCVRFGWTCG
modifications: linker 2-9-16 via TBMB
notes: also called PK15L1-PEP48L1 bicyclic peptide; dual specific peptide comprising loops from PEP48 and PK15
Question: What does the source list for B2?
Answer: Kd [8]: 1.56 µM; IC50 for inhibition of kallikrein activity [9]: 11 µM; Kd [10]: 1.55 µM

B3: PK15L1-CG4L1 bicyclic (peptide)
peptide: ACSDRFRNCIFDLGFCG
HELM: PEPTIDE1{A.C.S.D.R.F.R.N.C.I.F.D.L.G.F.C.G}|CHEM1{[c1c(C[*:1])cc(C[*:3])cc1C[*:2]]}$PEPTIDE1,CHEM1,2:R3-1:R1|PEPTIDE1,CHEM1,9:R3-1:R2|PEPTIDE1,CHEM1,16:R3-1:R3$$$V2.0
SMILES: CC[C@H](C)[C@@H]1NC(=O)[C@@H]2CSCc3cc(cc(c3)CSC[C@@H](C(=O)NCC(=O)O)NC(=O)[C@H](Cc3ccccc3)NC(=O)CNC(=O)[C@H](CC(C)C)NC(=O)[C@H](CC(=O)O)NC(=O)[C@H](Cc3ccccc3)NC1=O)CSC[C@H](NC(=O)[C@H](C)N)C(=O)N[C@@H](CO)C(=O)N[C@@H](CC(=O)O)C(=O)N[C@@H](CCCNC(=N)N)C(=O)N[C@@H](Cc1ccccc1)C(=O)N[C@@H](CCCNC(=N)N)C(=O)N[C@@H](CC(N)=O)C(=O)N2
Question: For B3, which “IC50 for inhibition of kallikrein activity” value (“IC50 for inhibition” below) [9] is on record?
Answer: 0.2 µM

Question: For SGCVRFGWTCPTVMCGG (linker 3-10-15 via TBMB; not fully specified (N-terminus, C-terminus)) [Pep48T (affinity-matured Pep48 derivative, TBMB conjugate)], which Kd [11] is on record?
Answer: ~0.1 µM

B4: CG4L1-PK15L1-PK15L2 tricyclic (peptide)
peptide: ALCIFDLGFCSDRFRNCPADE
HELM: PEPTIDE1{A.L.C.I.F.D.L.G.F.C.S.D.R.F.R.N.C.P.A.D.E}|CHEM1{[c1c(C[*:1])cc(C[*:3])cc1C[*:2]]}$PEPTIDE1,CHEM1,3:R3-1:R1|PEPTIDE1,CHEM1,10:R3-1:R2|PEPTIDE1,CHEM1,17:R3-1:R3|PEPTIDE1,PEPTIDE1,1:R1-21:R2$$$V2.0
SMILES: CC[C@H](C)[C@@H]1NC(=O)[C@@H]2CSCc3cc4cc(c3)CSC[C@H](NC(=O)[C@H](CC(N)=O)NC(=O)[C@H](CCCNC(=N)N)NC(=O)[C@H](Cc3ccccc3)NC(=O)[C@H](CCCNC(=N)N)NC(=O)[C@H](CC(=O)O)NC(=O)[C@H](CO)NC(=O)[C@H](CSC4)NC(=O)[C@H](Cc3ccccc3)NC(=O)CNC(=O)[C@H](CC(C)C)NC(=O)[C@H](CC(=O)O)NC(=O)[C@H](Cc3ccccc3)NC1=O)C(=O)N1CCC[C@H]1C(=O)N[C@@H](C)C(=O)N[C@@H](CC(=O)O)C(=O)N[C@@H](CCC(=O)O)C(=O)N[C@@H](C)C(=O)N[C@@H](CC(C)C)C(=O)N2
Question: Which “IC50 for inhibition” value [9] does the source give for B4 here?
Answer: 15 µM

Question: For ACSDRFRNCPADEALCG (linker 2-9-16 via TBMB) [PK15L1-PK15L2 bicyclic], which “IC50 for inhibition” value [9] is on record?
Answer: 0.013 µM

B5: Fmoc-FGSGD-NH2 (peptide)
peptide: FGSGD
HELM: PEPTIDE1{[O=C(OCC1c2ccccc2-c2ccccc21)[*:2]].F.G.S.G.D.[am]}$$$$V2.0
SMILES: NC(=O)[C@H](CC(=O)O)NC(=O)CNC(=O)[C@H](CO)NC(=O)CNC(=O)[C@H](Cc1ccccc1)NC(=O)OCC1c2ccccc2-c2ccccc21
Question: How did the Kd [12] turn out when B5 was run?
Answer: 0.16 µM

Question: And the “fold tighter than the glycine variant (Fmoc-GGSGD-NH2)” value [13]?
Answer: 8 fold

B6: Fmoc-WGSGD-NH2 (peptide)
peptide: WGSGD
HELM: PEPTIDE1{[O=C(OCC1c2ccccc2-c2ccccc21)[*:2]].W.G.S.G.D.[am]}$$$$V2.0
SMILES: NC(=O)[C@H](CC(=O)O)NC(=O)CNC(=O)[C@H](CO)NC(=O)CNC(=O)[C@H](Cc1c[nH]c2ccccc12)NC(=O)OCC1c2ccccc2-c2ccccc21
notes: also called Fmoc-Trp-GSGD
Question: B6 was tested. Which Kd [14] did it give?
Answer: ~0.06 µM

Question: What about the “fold tighter than Fmoc-FGSGD-NH2” value [13] of the same binder?
Answer: 3 fold

B7: Fmoc-GGSGD-NH2 (peptide)
peptide: GGSGD
HELM: PEPTIDE1{[O=C(OCC1c2ccccc2-c2ccccc21)[*:2]].G.G.S.G.D.[am]}$$$$V2.0
SMILES: NC(=O)[C@H](CC(=O)O)NC(=O)CNC(=O)[C@H](CO)NC(=O)CNC(=O)CNC(=O)OCC1c2ccccc2-c2ccccc21
notes: also called the glycine variant
Question: B7 was tested. Which Kd [15] did it give?
Answer: 1.3 µM

B8: Fmoc-FGGGD-NH2 (peptide)
peptide: FGGGD
HELM: PEPTIDE1{[O=C(OCC1c2ccccc2-c2ccccc21)[*:2]].F.G.G.G.D.[am]}$$$$V2.0
SMILES: NC(=O)[C@H](CC(=O)O)NC(=O)CNC(=O)CNC(=O)CNC(=O)[C@H](Cc1ccccc1)NC(=O)OCC1c2ccccc2-c2ccccc21
Question: B8 was tested. Which Kd [12] did it give?
Answer: 0.2 µM

B9: bicyclic Fmoc-WGGGA-PEP48L1-PK15L1 (peptide)
peptide: WGGGACVRFGWTCSDRFRNCG
HELM: PEPTIDE1{[O=C(OCC1c2ccccc2-c2ccccc21)[*:2]].W.G.G.G.A.C.V.R.F.G.W.T.C.S.D.R.F.R.N.C.G.[am]}|CHEM1{[c1c(C[*:1])cc(C[*:3])cc1C[*:2]]}$PEPTIDE1,CHEM1,7:R3-1:R1|PEPTIDE1,CHEM1,14:R3-1:R2|PEPTIDE1,CHEM1,21:R3-1:R3$$$V2.0
SMILES: CC(C)[C@@H]1NC(=O)[C@@H](NC(=O)[C@H](C)NC(=O)CNC(=O)CNC(=O)CNC(=O)[C@H](Cc2c[nH]c3ccccc23)NC(=O)OCC2c3ccccc3-c3ccccc32)CSCc2cc3cc(c2)CSC[C@H](NC(=O)[C@H]([C@@H](C)O)NC(=O)[C@H](Cc2c[nH]c4ccccc24)NC(=O)CNC(=O)[C@H](Cc2ccccc2)NC(=O)[C@H](CCCNC(=N)N)NC1=O)C(=O)N[C@@H](CO)C(=O)N[C@@H](CC(=O)O)C(=O)N[C@@H](CCCNC(=N)N)C(=O)N[C@@H](Cc1ccccc1)C(=O)N[C@@H](CCCNC(=N)N)C(=O)N[C@@H](CC(N)=O)C(=O)N[C@H](C(=O)NCC(N)=O)CSC3
notes: also called Fmoc PEP48L1-PK15L1 bicyclic; FmocPEP48L1-PK15L1
Question: Which results are given for B9?
Answer: Kd [16]: 0.062 µM; IC50 for inhibition of kallikrein activity [9]: 17 µM; Kd [17]: < 1 µM

Question: With H-ALCIFDLGFCSDRFRNCPADE-OH (linker 3-10-17 via TBMB) [X-CG4L1-PK15L1-Y bicyclic] as the binder, how does the “IC50 for inhibition” value [9] read?
Answer: 15 µM

B10: PEP10 bicyclic peptide (synthetic peptide of phage clone 10 conjugated to TBMB) (peptide)
peptide: H-SCELWNPKCRLSPFECKG-OH
modifications: linker 2-9-16 via TBMB
notes: measured in PBS with 5 mM DTT; also called peptide 10
Question: Which Kd [4] does the source give for B10 here?
Answer: 0.268 µM

Question: And the Kd [6]?
Answer: 0.267 µM

Question: And the Kd [7]?
Answer: 0.25 to 0.75 µM
